Data reported in US20210380680A1 (ZLLP, published 2021).
Numbering of substitutions follows the chain as printed.

B1: 413H9F8-cp3 (antibody, V domains shown)
VH: DVQLVESGGGLVQPGGSLRLSCAASGFTFSSFGMHWVRQAPGKGLEWVAYISSGSSPIYYVDKLKGRFTVSRDNAKNSLYLQMNSLRAEDTAVYYCARAGYAVRNALDYWGQGTLVTVSS
VL: EIVMTQSPPTLSLSPGERVTLSCKSSQSLLNVGNQKNYLAWYQQKPGQAPRLLIYGASTRESGIPARFSGSGSGTDFTLTISSLQPEDFAVYYCQNDLFYPLTFGGGTKVEIK
notes: humanized IgG; constant regions not specified
B2: 413H9F8-cp4 (antibody, V domains shown)
VH: B1 VH with D1E, A49S, V70I
VL: B1 VL with E1D, A66D
notes: as for B1
B3: 413H9F8-cp5 (antibody, V domains shown)
VH: B1 VH with V70I
VL: B1 VL with E1D, A66D
notes: as for B1
B4: 413H9F8-cp11 (antibody, V domains shown)
VH: B1 VH with V70I
VL: B1 VL with E1D, R51K, A66D, Y93F
notes: humanized IgG; constant regions not specified; also called 413H9F8-cp811
B5: 413H9F8-cp12 (antibody, V domains shown)
VH: B1 VH
VL: B1 VL with E1D, R51K, A66D, Y93F
notes: as for B1
B6: 413H9F8-cp9 (antibody, V domains shown)
VH: B1 VH
VL: B1 VL with E1D, R51K, A66D
notes: as for B1
B7: 413H9F8-cp10 (antibody, V domains shown)
VH: B1 VH with D1E, A49S, V70I
VL: B1 VL with E1D, R51K, A66D, Y93F
notes: as for B1
B8: 413H9F8-cp8 (antibody, V domains shown)
VH: B1 VH with V70I
VL: B1 VL with E1D, R51K, A66D
notes: as for B1
B9: 413H9F8-cp6 (antibody, V domains shown)
VH: B1 VH
VL: B1 VL with E1D, A66D
notes: as for B1
B10: 413H9F8-cp7 (antibody, V domains shown)
VH: B1 VH with D1E, A49S, V70I
VL: B1 VL with E1D, R51K, A66D
notes: as for B1

Experiments:
[1] = biological target: T1, human Claudin 18.2 (CLDN18.2) (human, UniProt P56856-2 1-261); assay: cell-based or functional assay
[2] = biological target: T1, human Claudin 18.2 (CLDN18.2); assay: cell-based or functional assay; remark: listed apart in the source
[3] = biological target: T1, human Claudin 18.2 (CLDN18.2); assay: FACS on CHO-CLDN18.2 cells

Row | Binder | % ADCC @ 6.67 nM, NCI-N87-CLDN18.2, FcR-TANK [1] | ADCC EC50, NCI-N87-CLDN18.2, FcR-TANK [1] | % specific cytotoxicity @ 6.67 nM, NUGC4-CLDN18.2, PBMC [2] | ADCC EC50, NUGC4-CLDN18.2, PBMC [2] | EC50 [3]
1 | B1 | 11.1% | 0.22 nM | 30.5% | 5.86 nM | 2.09 nM
2 | B2 | – | – | – | – | 2.28 nM
3 | B3 | 14.1% | 0.27 nM | 29.6% | 7.75 nM | 2.54 nM
4 | B4 | – | – | – | – | 2.61 nM
5 | B5 | – | – | – | – | 3.01 nM
6 | B6 | – | – | – | – | 2.21 nM
7 | B7 | – | – | – | – | 3.69 nM
8 | B8 | 13.1% | 0.27 nM | 27.7% | 8.85 nM | 2.72 nM
9 | B9 | – | – | – | – | 2.32 nM
10 | B10 | 13.3% | 0.28 nM | 29.7% | 6.68 nM | 2.47 nM
